For orientation: Km means the substrate concentration at which the rate is half of its maximum. What is called kcat is the maximal rate divided by the concentration of active sites.

Substrate in this data set: O=[N+]([O-])c1ccc(O[C@@H]2O[C@@H](CO)[C@H](O)[C@H]2O)cc1
The experiment in a line: purified protein. To be noted: 0.1 M McIlvaine buffer pH 3.5, 55 °C, 5 min, 0.1–5 mM substrate. It is filed as biochemical, Evansstolkia leycettana.

B1: TlAbf51 (Evansstolkia leycettana) (protein)
chain: MKTLPALAGGLAVAVTYLSGLAFAIDLTVSKTGGNASSPLLYGIMFEDINNSGDGGIHGQLLKNNGFQGNNPGLTAYAAVGNVTLSQDTSNPLSSAITSSLKVSVPPGTTGYVGFANTGYAGVPVVATTYANYFWMKGKYSGTINLRLVGTSSGIVYASHNITVHSTDSQFTYYDTSFTSSASPDGNNEWQLLFDGSQVAGSSLNFGLVQLFPPTYHSRYNGLRNDVASFLEEIKPSFLRFPGGNNLEGASPADRWKWNATIGPVVDRPGRQGDWGYPNTDALGLDEYLYWCEDMGMEPVLAVWSGLSLGGGIVSGSALDPYVDDIMNELEYLLGDMSTAGGRLRAQNGRTEPWPIKHVEVGNEDNLSSGCGTYASRFTQIYNAIHAAYPDITVIASTTDASCLPSSILEGVITDIHHYLNPDQFVALFNEWDNWPRTHPIFVGEYASTHNSDGSQTYWTRMRGSCGEAVYMIGMERNSDIVKMASYAPLLEHFNLAEWSPDLFGLDSSPDSITGSTSYYVQKMFSTNRGSTILPVTSDAGFGPVYWVASVSGSTYYVKLANYGSASETVTINIDGTKSGTLEMLSGAEMGSNYPHNVTITPQTSSVSGSGSFTVTMPAWAVAVLAVS
notes: secreted from Pichia pastoris GS115 (pPIC9, EcoRI/NotI), purified
Turning to B1, the Km stood at 280 ± 10 µM and the kcat was found to be 1600 s⁻¹.

The record behind these values is paper PMC6699109, “A GH51 α-L-arabinofuranosidase from Talaromyces leycettanus strain JCM12802 that selectively drives synergistic lignocellulose hydrolysis” (Microbial Cell Factories, 2019).
